Laboratory results as given in IntAct's records for PubMed 18589438.

B1: Bcl-2-binding component 3 (Mus musculus), Q99ML1 (parent)
chain: MARARQEGSSPEPVEGLARDSPRPFPLGRLMPSAVSCSLCEPGLPAAPAAPALLPAAYLCAPTAPPAVTAALGGPRWPGGHRSRPRGPRPDGPQPSLSPAQQHLESPVPSAPEALAGGPTQAAPGVRVEEEEWAREIGAQLRRMADDLNAQYERRRQEEQHRHRPSPWRVMYNLFMGLLPLPRDPGAPEMEPN
B2: Phorbol-12-myristate-13-acetate-induced protein 1 (Mus musculus), Q9JM54 (parent)
chain: MPGRKARRNAPVNPTRAELPPEFAAQLRKIGDKVYCTWSAPDITVVLAQMPGKSQKSRMRSPSPTRVPADLKDECAQLRRIGDKVNLRQKLLNLISKLFNLVT

Variants of: B1
Settings: with mcl1_mouse Mcl1, P97287
Sequence of mcl1_mouse Mcl1, P97287 (P97287 whole entry): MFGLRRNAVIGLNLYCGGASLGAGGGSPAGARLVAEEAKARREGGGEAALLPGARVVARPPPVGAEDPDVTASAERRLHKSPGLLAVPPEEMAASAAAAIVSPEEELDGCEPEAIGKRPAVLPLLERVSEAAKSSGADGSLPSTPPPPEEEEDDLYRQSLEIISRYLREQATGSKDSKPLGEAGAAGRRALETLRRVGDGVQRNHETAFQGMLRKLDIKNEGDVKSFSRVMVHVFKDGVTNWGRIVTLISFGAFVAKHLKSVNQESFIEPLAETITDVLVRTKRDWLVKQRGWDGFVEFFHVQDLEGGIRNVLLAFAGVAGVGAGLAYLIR

Row | effect of a mutation on the interaction | Variant
1 | increasing interaction | M144I

Variants of: B2
Settings: with mcl1_mouse Mcl1, P97287

Row | effect of a mutation on the interaction | Variant
2 | increasing interaction strength | E74F
